Measurements as given in article PMC2978110, “EBP1 Is a Novel E2F Target Gene Regulated by Transforming Growth Factor-β”.
Changes are numbered by the printed parent chain. Names and notes keep the numbering of the source.

What was measured:
[1] = molecular target: T1, GST-E2F1 (UniProt Q01094 1-437); assay: EMSA; EMSA as in ref 34 (buffer, pH, temperature not given); 1.8 ug GST-E2F1 per reaction, 24 ng/ul ds mutant adenovirus E2 E2F-site oligo as nonspecific competitor; conditions: protein: recombinant, label: 32P
[2] = molecular target: T1, GST-E2F1; assay: competition; 100-fold excess vs EBP1 -158 and -113 probes; EMSA as in ref 34 (buffer, pH, temperature not given); 1.8 ug GST-E2F1 per reaction, 24 ng/ul ds mutant adenovirus E2 E2F-site oligo as nonspecific competitor; conditions: protein: recombinant, blunt
[3] = molecular target: T1, GST-E2F1; assay: competition; 100-fold excess vs EBP1 -158 and -113 probes; substantially reduced; EMSA as in ref 34 (buffer, pH, temperature not given); 1.8 ug GST-E2F1 per reaction, 24 ng/ul ds mutant adenovirus E2 E2F-site oligo as nonspecific competitor; conditions: protein: recombinant; blunt
[4] = molecular target: T1, GST-E2F1; assay: EMSA; additional low-mobility complex; EMSA as in ref 34 (buffer, pH, temperature not given); 1.8 ug GST-E2F1 per reaction, 24 ng/ul ds mutant adenovirus E2 E2F-site oligo as nonspecific competitor; conditions: protein: recombinant; label: 32P; blunt
[5] = terminal G:G mismatch as printed

T1 sequence (Q01094 whole entry): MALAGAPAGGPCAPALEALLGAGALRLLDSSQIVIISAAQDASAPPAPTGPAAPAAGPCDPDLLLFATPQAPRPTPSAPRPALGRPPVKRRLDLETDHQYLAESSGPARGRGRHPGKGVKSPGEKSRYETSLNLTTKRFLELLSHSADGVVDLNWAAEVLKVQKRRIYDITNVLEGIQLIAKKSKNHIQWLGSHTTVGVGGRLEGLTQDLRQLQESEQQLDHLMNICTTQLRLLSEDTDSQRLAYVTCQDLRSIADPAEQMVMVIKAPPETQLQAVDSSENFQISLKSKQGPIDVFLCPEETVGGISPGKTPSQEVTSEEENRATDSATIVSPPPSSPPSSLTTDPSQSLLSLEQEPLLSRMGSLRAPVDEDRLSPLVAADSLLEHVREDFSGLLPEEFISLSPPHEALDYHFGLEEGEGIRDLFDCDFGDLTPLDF

B1: EBP1 -168 probe (-168 to -130) (dsDNA)
DNA 1: GCTTAGGAGCGCGAGAGGCAGGCTGGGAATTGTAGTTC
DNA 2: GAACTACAATTCCCAGCCTGCCTCTCGCGCTCCTAAGC
binding result ([1]; blunt): binds

B2: EBP1 -155 probe (-155 to -120) (dsDNA)
DNA 1: GAGCTTCGAACTACAATTCCCAGCCTGCCTCTCGCGCTG
DNA 2: CAGCGCGAGAGGCAGGCTGGGAATTGTAGTTCGAAGCTC
binding result ([1]; blunt): no binding

B3: EBP1 -166 (-158*) (dsDNA)
DNA 1: TTAGGAAAAAAAGAGGCAGGCTGGGAATTGTAGTTCGAAGGCCCTCGAGAGCGGCTAGAGTC
DNA 2: GACTCTAGCCGCTCTCGAGGGCCTTCGAACTACAATTCCCAGCCTGCCTCTTTTTTTCCTAA
binding result ([1]; blunt): binds

B4: EBP1 -166 (-113*) (dsDNA)
DNA 1: TTAGGAGCGCGAGAGGCAGGCTGGGAATTGTAGTTCGAAGGCCCTCGAGAAAAAATAGAGTC
DNA 2: GACTCTATTTTTTCTCGAGGGCCTTCGAACTACAATTCCCAGCCTGCCTCTCGCGCTCCTAA
binding result ([1]; blunt): binds

B5: EBP1 -166 (both*) (dsDNA)
DNA 1: B3 DNA 1 with G51A, C52A, G53A, G54A, C55A
DNA 2: B3 DNA 2 with G8T, C9T, C10T, G11T, C12T
binding result ([1]; blunt): no binding

B6: DHFR E2F site (dsDNA)
DNA 1: CTAGAGCAATTTCGCGCCAAACTTGGATC
DNA 2: GATCCAAGTTTGGCGCGAAATTGCTCTAG
binding result ([2]; label: 32P as probe): binds

B7: DHFR E2F site mutant (dsDNA)
DNA 1: CTAGAGCAATTTAAAAACAAACTTGGATC
DNA 2: GATCCAAGTTTGTTTTTAAATTGCTCTAG
binding result [2]: no binding

B8: N-myc E2F site (dsDNA)
DNA 1: GATCCTTTTGGCGCGAAAGGCTTAGATC
DNA 2: GATCTAAGCCTTTCGCGCCAAAAGGATC
binding result [2]: binds

B9: TIMELESS E2F site (dsDNA)
DNA 1: CAGAAAATTCATAGCGCTGTGATTTTTAGATC
DNA 2: GATCTAAAAATCACAGCGCTATGAATTTTCTG
binding result [3]: binds

B10: EBP1 -136 probe (-136 to -100) (dsDNA)
DNA 1: TAGTTCGAAGGCCCTCGAGAGCGGCTAGAGTCTGG
DNA 2: GCAGACTCTAGCCGCTCTCGAGGGCCTTCGAACTA
binding result [1, 5]: binds

B11: TIMELESS E2F site mutant (dsDNA)
DNA 1: B9 DNA 1 with G14A, C15A, G16A, C17A
DNA 2: B9 DNA 2 with G16T, C17T, G18T, C19T
binding result [2]: no binding

B12: EBP1 -113* (dsDNA)
DNA 1: TAGTTCGAAGGCCCTCGAGAAAAAATAGAGTCTGG
DNA 2: GCAGACTCTATTTTTTCTCGAGGGCCTTCGAACTA
binding result [1, 5]: no binding

B13: EBP1 -158* (dsDNA)
DNA 1: GCTTAGGAAAAAAAGAGGCAGGCTGGGAATTGTAGTTC
DNA 2: GAACTACAATTCCCAGCCTGCCTCTTTTTTTCCTAAGC
binding result ([1]; blunt): no binding

B14: EBP1 -166 wt (-166 to -104) (dsDNA)
DNA 1: B3 DNA 1 with A7G, A8C, A9G, A10C, A11G
DNA 2: B3 DNA 2 with T52C, T53G, T54C, T55G, T56C
binding result [4]: binds
